From publication PMC3709774, “Preparation of Novel Poly(hydroxyethyl methacrylate-coglycidyl methacrylate)-Grafted Core-Shell Magnetic Chitosan Microspheres and Immobilization of Lactase” (International Journal of Molecular Sciences, 2013)

Substrate: O=[N+]([O-])c1ccccc1O[C@@H]1O[C@H](CO)[C@H](O)[C@H](O)[C@H]1O
Test: purified protein
Format: biochemical, Kluyveromyces lactis
Settings: free enzyme, 37 °C, assay buffer 50 mM potassium phosphate, 1 mmol/L MgCl2, pH 6.5 (general activity assay), substrate range printed as 6.3-31.5 μmol/L, which conflicts with the mmol/L unit of Km

B1: lactase (DSM Maxilact 5000) (Kluyveromyces lactis NRRL Y-1140) (protein)
chain: MSCLIPENLRNPKKVHENRLPTRAYYYDQDIFESLNGPWAFALFDAPLDAPDAKNLDWETAKKWSTISVPSHWELQEDWKYGKPIYTNVQYPIPIDIPNPPTVNPTGVYARTFELDSKSIESFEHRLRFEGVDNCYELYVNGQYVGFNKGSRNGAEFDIQKYVSEGENLVVVKVFKWSDSTYIEDQDQWWLSGIYRDVSLLKLPKKAHIEDVRVTTTFVDSQYQDAELSVKVDVQGSSYDHINFTLYEPEDGSKVYDASSLLNEENGNTTFSTKEFISFSTKKNEETAFKINVKAPEHWTAENPTLYKYQLDLIGSDGSVIQSIKHHVGFRQVELKDGNITVNGKDILFRGVNRHDHHPRFGRAVPLDFVVRDLILMKKFNINAVRNSHYPNHPKVYDLFDKLGFWVIDEADLETHGVQEPFNRHTNLEAEYPDTKNKLYDVNAHYLSDNPEYEVAYLDRASQLVLRDVNHPSIIIWSLGNEACYGRNHKAMYKLIKQLDPTRLVHYEGDLNALSADIFSFMYPTFEIMERWRKNHTDENGKFEKPLILCEYGHAMGNGPGSLKEYQELFYKEKFYQGGFIWEWANHGIEFEDVSTADGKLHKAYAYGGDFKEEVHDGVFIMDGLCNSEHNPTPGLVEYKKVIEPVHIKIAHGSVTITNKHDFITTDHLLFIDKDTGKTIDVPSLKPEESVTIPSDTTYVVAVLKDDAGVLKAGHEIAWGQAELPLKVPDFVTETAEKAAKINDGKRYVSVESSGLHFILDKLLGKIESLKVKGKEISSKFEGSSITFWRPPTNNDEPRDFKNWKKYNIDLMKQNIHGVSVEKGSNGSLAVVTVNSRISPVVFYYGFETVQKYTIFANKINLNTSMKLTGEYQPPDFPRVGYEFWLGDSYESFEWLGRGPGESYPDKKESQRFGLYDSKDVEEFVYDYPQENGNHTDTHFLNIKFEGAGKLSIFQKEKPFNFKISDEYGVDEAAHACDVKRYGRHYLRLDHAIHGVGSEACGPAVLDQYRLKAQDFNFEFDLAFE
notes: commercial enzyme preparation, free (not immobilised)
Km: 25.4 mmol/L
kcat: 1182.9 s⁻¹
